From PMC2795169, “The Influence of Recombinant Production on the Immunologic Behavior of Birch Pollen Isoallergens” (PLoS ONE, 2009)

T1: Bet v 1.0401 (Betula pendula, UniProt P43177)
T1 construct: gene BETV1D; full-length non-fusion protein, no tag, pET28b (Nco I/Eco RI), E. coli BL21 Star (DE3), codon-optimized gene, batch B purified without denaturation
T1 sequence (P43177 2-160): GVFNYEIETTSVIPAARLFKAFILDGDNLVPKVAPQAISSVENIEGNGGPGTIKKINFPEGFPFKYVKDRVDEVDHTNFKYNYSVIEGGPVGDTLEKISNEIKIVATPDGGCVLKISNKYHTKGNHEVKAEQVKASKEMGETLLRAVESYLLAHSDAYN

B1: Recombinant Bet v 1.0401 production batch A (protein)
chain: MGVFNYEIETTSVIPAARLFKAFILDGDNLVPKVAPQAISSVENIEGNGGPGTIKKINFPEGFPFKYVKDRVDEVDHTNFKYNYSVIEGGPVGDTLEKISNEIKIVATPDGGCVLKISNKYHTKGNHEVKAEQVKASKEMGETLLRAVESYLLAHSDAYN

Assays:
[1] = target: T1, Bet v 1.0401; assay: ANS fluorescence titration, nonlinear regression; type: binding
[2] = target: P43177; assay: dynamic light scattering; DLS in aqueous solution at a concentration of 1 mg/ml; settings: other: dynamic light scattering
[3] = target: Recombinant Bet v 1.0401 production batch A (birch) (UniProt P43177); assay: SEC-MALS; online HPSEC-light scattering (refractive index and right-angle light scattering), 0.5 ml/min, 0.1 M sodium phosphate pH 6.5, 150 mM sodium chloride

Molecule | Kd [1] [µM] | percent of the protein as aggregates (RH 16 nm) by DLS [2] | percent of the protein as multimers of more than 2,000 kDa [3] [%] | percent of the protein as small oligomers of 70–80 kDa [3] [%] | stoichiometry N [3]
O=S(=O)(O)c1cccc2cccc(Nc3ccccc3)c12 [8-anilino-1-naphtalenesulfonic acid] | 21.2 | – | – | – | –
B1 | – | 34% RH of 16±8 nm | 2 | 12 | 4
